# Measurements taken from publication PMC9943675, “Depletion of the RNA-binding protein PURA triggers changes in posttranscriptional gene regulation and loss of P-bodies”.
# B1: CLTA (ssRNA)
# RNA: GUUGUUUGUGAUUGCAUGUUUCCUUCCUUCAACUGUGUUCUCCCUGGCAUU
# B2: CLTC (ssRNA)
# RNA: GUCUUGUGUGUGUUUACUAACCCUUCCCUGAGGUUUGUGUAUGUUGGAUAUUGUGGUGUUUUAG
# Target: T1, PURA (Pur-alpha) (Homo sapiens, UniProt Q00577 1-322)
# T1 sequence: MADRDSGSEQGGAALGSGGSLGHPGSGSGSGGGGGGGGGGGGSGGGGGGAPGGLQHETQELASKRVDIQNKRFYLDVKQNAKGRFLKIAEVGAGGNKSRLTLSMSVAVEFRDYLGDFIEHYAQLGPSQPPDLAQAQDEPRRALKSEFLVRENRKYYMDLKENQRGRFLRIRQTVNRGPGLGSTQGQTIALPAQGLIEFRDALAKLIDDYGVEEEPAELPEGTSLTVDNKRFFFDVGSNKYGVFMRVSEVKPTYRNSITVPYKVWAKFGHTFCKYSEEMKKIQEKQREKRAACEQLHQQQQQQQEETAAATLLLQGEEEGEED
# Experiment: EMSA; 100 ug/ml yeast tRNA; 250 mM NaCl, 20 mM HEPES pH 8.0, 3 mM MgCl2, 4% glycerol, 2 mM DTT, 100 ug/ml yeast tRNA, 2.5 nM RNA, 20 min RT; 6% TBE gel
# Conditions: protein: recombinant; tags: GST-PURA (pOPIN-J); GST removed with 3C protease; chain copies: 2; label: 5' 32P
row,Binder,binding result
1,B1,binds
2,B2,binds
